What was measured:
Type in all cases: cell-based, human
[1] = tested on: PC3 cells; test: Endocytosis capacity of murine monoclonal antibody (flow cytometry internalization); details: antibody 1.5 μg/mL; for Internalization PC3 (%) 0.5 h: PC3, 0.5 h at 37° C.; for Internalization PC3 (%) 1 h: PC3, 1 h at 37° C.; for Internalization PC3 (%) 2 h: PC3, 2 h at 37° C.
Protocol: (§1) The endocytosis capacity of the antibody was detected for 0.5 to 2 hours. MDA-MB-231 and PC3 cells were subjected to digestion with 5 mM EDTA, and plated at 4×10^4 cells/well after cell counting. After adding an Fc blocker (Human TruStain FcX™, Biolegend, 422302) and blocking at room temperature for 10 mins, a test antibody (1.5 μg/mL) was added, and the mixture was incubated at 4° C. for 30 mins, centrifuged, and washed twice with PBS+2% FBS, then the cells were divided into four equal portions (labeled as 0 h, 0.5 h, 1 h, 2 h), cells labeled as 0.5 h, 1 h, 2 h time points were added to a cell culture medium at 200 µL/well, and cultured at 37° C. for 0.5 h, 1 h, 2 h, respectively. Cells at 0 h point were centrifuged to remove supernatant, a secondary antibody (PE anti-human IgG Fc Antibody, Biolegend, 410708) was added, and the mixture was incubated at 4° C. for 30 mins, centrifuged, and washed twice with PBS+2% FBS, and detection was performed using a flow cytometer. After incubation of cells labeled as 0.5 h, 1 h, and 2 h points at 37° C. was completed, a secondary antibody was added (in the same steps as those at 0 h point), Geo-MFI of the signal under the same voltage was collected as detection signal at 0 h, and antibody internalization rate was calculated according to the following equation: Internalization (%)=(Geo-MFI (0 h)-Geo-MFI (0.5, 1, 2 h))/Geo-MFI (0 h)×100%.

[2] = tested on: MDA-MB-231 cells; test: as above; details: antibody 1.5 μg/mL; for Internalization MDA-MB-231 (%) 0.5 h: MDA-MB-231, 0.5 h at 37° C.; for Internalization MDA-MB-231 (%) 1 h: MDA-MB-231, 1 h at 37° C.; for Internalization MDA-MB-231 (%) 2 h: MDA-MB-231, 2 h at 37° C.
Protocol: as §1

[3] = tested on: MDA-MB-231 cells; test: Transwell tumor cell migration experiment; details: MDA-MB-231, antibody 10 μg/ml
Protocol: In order to determine the effect of antibodies on tumor cell metastasis, the migration ability of tumor cells was examined in this study according to a transwell experiment. The specific cell migration experiment involved culturing and collecting MDA-MB-231 cells, washing them once with PBS, adjusting the density to 8×10^5 cells/mL, adding the antibody to be tested to the cells such that the working concentration thereof was 10 μg/ml, co-incubating for 30 mins, adding a cell suspension to the upper chamber of the transwell chamber, placing the transwell chamber in the incubator for 12-48 h, then removing the chamber (transwell chamber, to examine cell migration ability), immobilizing the cells, staining the cells with crystal violet for 15 mins, washing, air drying, mounting, and taking photos of 4-5 fields of view under a microscope, and counting the number or area of the stained cells using imageJ analysis software, the number or area was used as the basis for determining tumor cell migration.

[4] = tested on: PC-3 cells; test: Effect of antibody on tumor cell proliferation (CellTiter-Glo); details: PC-3, 96 h
Protocol: (§2) 3000 cells (breast cancer MDA-MB-231, prostate cancer PC-3 cells)/well were plated onto 96-well plates overnight, an antibody at a final concentration of 500 nM to 0.00128 nM (100 nM to 0.000256 nM, 100, 20, 4, 0.8, 0.16, 0.032, 0.0064, 0.00128, 0.000256 nM, respectively) was added; after a 5-fold dilution across 9 concentration points and culturing in a CO2 incubator at 37° C. for 96 h, half of the medium (100 μL) was discarded, and 100 μL of CellTiter-Glo Luminescent Cell Viability assay reagent (Promega, cat #G7570) was added to detect signal values on a BMG microplate reader. The inhibition of antibody on tumor cell growth was calculated by graphpad fitting based on the signal value and antibody concentration.

[5] = tested on: MDA-MB-231 cells; test: as above; details: MDA-MB-231, 96 h
Protocol: as §2

Molecule | Internalization PC3 (%) 0.5 h [1] [%] | Internalization PC3 (%) 1 h [1] [%] | Internalization PC3 (%) 2 h [1] [%] | Internalization MDA-MB-231 (%) 0.5 h [2] [%] | Internalization MDA-MB-231 (%) 1 h [2] [%] | Internalization MDA-MB-231 (%) 2 h [2] [%] | effect on tumor cell migration (transwell, FIG. 4c) [3] | effect on tumor cell growth (FIG. 4b) [4] | effect on tumor cell growth (FIG. 4a) [5]
6A7: anti-CDCP1 murine monoclonal antibody (hybridoma); VH SEQ ID NO: 243, VL SEQ ID NO: 294 (antibody, V domains shown, 6A7 heavy chain variable region; 6A7 light chain variable region) VH: EVQLKESGAELVRPGASVKVSCKASGYSFTSYWMNWVKQRPGQGLEWIGMIHPSDSETKLNQKFRDRASLTVDKSSSTAYMQLSSPTSEDSAVYYCTINYESFYYAMDYWGQGTTVTVSS VL: DIVMTQSPASLAVSLGQRATISCRASKSVSTSGYSYMHWYQQKPGQPPKLLLYLASNLESGVPARFSGSGSGADFTLNIHPVEEEDAATYYCLHSRELPYTFGGGTKLEIK | 22.99 | 35.14 | 49.86 | 28.97 | 43.77 | 58.78 | better capability to inhibit tumor cell migration than SEQ135 | did not exhibit an effect on tumor cell growth | did not exhibit an effect on tumor cell growth
8E5: anti-CDCP1 murine monoclonal antibody (hybridoma); VH SEQ ID NO: 258, VL SEQ ID NO: 308 (antibody, V domains shown, 8E5 heavy chain variable region; 8E5 light chain variable region) VH: EVQLKESGPELKKPGETVKISCKASGYTLTDFSMHWLKQAPGKGLKWMGWINTETGAPTYADDFKGRFALSLDTSANTAYLQINNLKNEDTATYFCSRGRDYDPHFDYWGQGTTVTVSS VL: EIVLTQSPATLSVTPGDRVSLSCRASQSISDFLHWYQQRSHESPRLLIKYASQSISGIPSRFGGSGSGSDFTLNINTVEPEDVGMYYCQSAHSFPYTFGGGTKLEIK | 6.54 | 17.17 | 42.94 | 24.32 | 38.20 | 53.26 | better capability to inhibit tumor cell migration than SEQ135 | did not exhibit an effect on tumor cell growth | did not exhibit an effect on tumor cell growth
G10F6: anti-CDCP1 murine monoclonal antibody (hybridoma); VH SEQ ID NO: 256, VL SEQ ID NO: 306 (antibody, V domains shown, G10F6 heavy chain variable region; G10F6 light chain variable region) VH: EVKLVESGPGILQPSQTLSLTCSFSGFSLSTSGMGVSWVRQPSGKGLEWLAHIYWDDDKRYNPSLKGRLTISKDTPRNQVFLEITSVDTTDTATYYCARVPGNWDEDAMDYWGQGTTVTVSS VL: DIQMTQSPLSLPVSLGDQASISCRSSQNIVHTNGNTYLEWYLQKVGQSPKLLIYKVSNRFSGVPDRFSGSGSGTDFTLKISRVEAEDLGVYYCFQGSHVPYTFGGGTKLEIK | 3.36 | 20.68 | 54.36 | 34.49 | 50.70 | 67.02 | better capability to inhibit tumor cell migration than SEQ135 | did not exhibit an effect on tumor cell growth | did not exhibit an effect on tumor cell growth
3C11: anti-CDCP1 murine monoclonal antibody (hybridoma); VH SEQ ID NO: 240, VL SEQ ID NO: 291 (antibody, V domains shown, 3C11 heavy chain variable region; 3C11 light chain variable region) VH: EVQLQQSGTVLARPGASVKMSCKASGYNFISYWLHWIKQRPGQGLEWIGGIYPGNTDTTYNQKFKGKAKVTAVTSATTAYMELSSLTNEDSAVYYCIRYDYDRGMDYWGQGTTVTVSS VL: DIQMTQSPSSFSVSLGDRVTITCRASEDIYYRLAWYQQKPGNAPRLLISGATALETGVPSRFSGSGSGKDYTLSITSLQTEDVATYYCQHYWNIPWTFGGGTKLEIK | 28.45 | 39.70 | 59.90 | 28.50 | 36.16 | 52.23 | better capability to inhibit tumor cell migration than SEQ135 | did not exhibit an effect on tumor cell growth | did not exhibit an effect on tumor cell growth
3B12H5: anti-CDCP1 murine monoclonal antibody (hybridoma); VH SEQ ID NO: 239, VL SEQ ID NO: 290 (antibody, V domains shown, 3B12H9/3B12H5 heavy chain variable region; 3B12H5 light chain variable region) VH: EVQLQQSGTVLARPGASVKMSCKASGYSFTIYWVHWVKQRPGQGLEWIGAVYPGNDDTSYNQNFKGKAKLTAVTSATTAYMELSSLTIDDSAVYYCTRHTYDEVFDYWGQGTTVTVSS VL: DIVMTQSPSSLSVSLGDRVTITCKASEDIYYRLAWYQQKPGNAPRLLISGGTNLEAGIPSRFSGSGSGKDYTLSITSLQTEDVAIYYCQHYWNTPWTFGGGTKLEIK | 16.54 | 30.28 | 50.50 | 20.76 | 29.93 | 49.69 | better capability to inhibit tumor cell migration than SEQ135 | did not exhibit an effect on tumor cell growth | did not exhibit an effect on tumor cell growth
14A10C5: anti-CDCP1 murine monoclonal antibody (hybridoma); VH SEQ ID NO: 257, VL SEQ ID NO: 307 (antibody, V domains shown, 14A10C5 heavy chain variable region; 14A10C5 light chain variable region) VH: EVKLVESGPGILQPSQTLSLTCSFSGFSLSTSGMGVSWIRQPSGKGLEWLAHIYWDDEKRYNPSLKSRLTISKDTSSNQVFLKITSVDTADTATYYCAREGSANWEAMDYWGQGTTVTVSS VL: DIVMTQAALSLPVSLGDQASISCRSSQNIVYTNGITYLEWYLQKPGQSPKLLIYKVSNRFSGVPDRFSGSGSATDFTLKISRVEAEDLGVYYCFQSSHVPWTFGGGTKLEIK | – | – | 51.73 | – | – | 39.23 | better capability to inhibit tumor cell migration than SEQ135 | – | –
